One test addresses T1, 4H2728-AA.
T1 chain: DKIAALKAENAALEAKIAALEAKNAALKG
As to the kind of experiment: two-hybrid library CCmax.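 Also: natural log of median RNA to DNA barcode read ratio; higher means stronger binding.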

Another test addresses T2, 4H2774-AA.
T2 chain: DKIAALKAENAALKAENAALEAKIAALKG
Nature of the test: two-hybrid library CCmax.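 Also: natural log of median RNA to DNA barcode read ratio; higher means stronger binding.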 Conditions: mean of both orientations.

A further test addresses T3, 4H2903-AA.
T3 chain: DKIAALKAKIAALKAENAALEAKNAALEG
Nature of the test: two-hybrid library CCmax.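 Also: natural log of median RNA to DNA barcode read ratio; higher means stronger binding.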 The settings on record: mean of both orientations.

The target in a further test is T4, 4H2961-AA.
T4 chain: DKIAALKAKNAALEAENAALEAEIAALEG
Nature of the test: two-hybrid library CCmax.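 Also: natural log of median RNA to DNA barcode read ratio; higher means stronger binding.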 The settings on record: mean of both orientations.

In the next test the target is T5, 4H3049-AA.
T5 chain: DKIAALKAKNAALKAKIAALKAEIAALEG
As to the kind of experiment: two-hybrid library CCmax.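 Also: natural log of median RNA to DNA barcode read ratio; higher means stronger binding.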 The settings on record: mean of both orientations.

The target in a further test is T6, 4H3129-AA.
T6 chain: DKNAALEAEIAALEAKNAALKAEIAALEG
Nature of the test: two-hybrid library CCmax.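 Also: natural log of median RNA to DNA barcode read ratio; higher means stronger binding.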 Conditions: mean of both orientations.

For another test, the target named is T7, 4H341-AA.
T7 chain: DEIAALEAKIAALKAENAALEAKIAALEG
As to the kind of experiment: two-hybrid library CCmax. Conditions: mean of both orientations.

A further test addresses T8, 4H3414-AA.
T8 chain: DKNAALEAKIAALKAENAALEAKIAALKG
As to the kind of experiment: two-hybrid library CCmax. Conditions: mean of both orientations.

Another test addresses T9, 4H3595-AA.
T9 chain: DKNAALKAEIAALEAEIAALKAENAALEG
Nature of the test: two-hybrid library CCmax. The settings on record: mean of both orientations.

Another test addresses T10, 4H3629-AA.
T10 chain: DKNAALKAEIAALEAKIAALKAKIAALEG
Nature of the test: two-hybrid library CCmax. The settings on record: mean of both orientations.

Another test addresses T11, 4H3782-AA.
T11 chain: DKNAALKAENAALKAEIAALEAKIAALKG
Nature of the test: two-hybrid library CCmax. The settings on record: mean of both orientations.

For a further test, the target named is T12, 4H380-AA.
T12 chain: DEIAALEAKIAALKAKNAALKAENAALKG
As to the kind of experiment: two-hybrid library CCmax. The settings on record: mean of both orientations.

A further test concerns the target T13, 4H3939-AA.
T13 chain: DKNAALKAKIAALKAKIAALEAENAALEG
Nature of the test: two-hybrid library CCmax. The settings on record: mean of both orientations.

A further test concerns the target T14, 4H3969-AA.
T14 chain: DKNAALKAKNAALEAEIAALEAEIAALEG
As to the kind of experiment: two-hybrid library CCmax. The settings on record: mean of both orientations.

For another test, the target named is T15, 4H446-AA.
T15 chain: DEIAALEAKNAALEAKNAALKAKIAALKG
Nature of the test: two-hybrid library CCmax. The settings on record: mean of both orientations.

The target in the next test is T16, 4H464-AA.
T16 chain: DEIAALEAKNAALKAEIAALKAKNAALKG
Nature of the test: two-hybrid library CCmax. The settings on record: mean of both orientations.

Another test deals with T17, 4H483-AA.
T17 chain: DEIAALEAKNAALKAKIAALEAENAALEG
Nature of the test: two-hybrid library CCmax. Conditions: mean of both orientations.

In another test the target is T18, 4H63-AA.
T18 chain: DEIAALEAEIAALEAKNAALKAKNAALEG
As to the kind of experiment: two-hybrid library CCmax. The settings on record: mean of both orientations.

Another test concerns the target T19, P6SC1.
T19 chain: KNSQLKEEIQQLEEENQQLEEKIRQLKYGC
As to the kind of experiment: two-hybrid library CC1.

The target in a further test is T20, P6SC2.
T20 chain: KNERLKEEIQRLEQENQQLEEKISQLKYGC
As to the kind of experiment: two-hybrid library CC1. The settings on record: mean of both orientations.

In the next test the target is T21, P6mS.
T21 chain: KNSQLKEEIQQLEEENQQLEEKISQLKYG
As to the kind of experiment: two-hybrid library CC1. The settings on record: mean of both orientations.

For a further test, the target named is T22, P7.
T22 chain: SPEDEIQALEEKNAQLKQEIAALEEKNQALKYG
As to the kind of experiment: two-hybrid library CC1. The settings on record: mean of both orientations.

A further test deals with T23, P7mS.
T23 chain: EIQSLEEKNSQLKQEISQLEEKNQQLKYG
Nature of the test: two-hybrid library CC1. The settings on record: mean of both orientations.

The target of the next test is T24, P8.
T24 chain: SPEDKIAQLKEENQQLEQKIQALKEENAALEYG
Nature of the test: two-hybrid library CC1. Conditions: mean of both orientations.

The target in the next test is T25, P8mS.
T25 chain: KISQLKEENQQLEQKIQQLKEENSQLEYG
As to the kind of experiment: two-hybrid library CC1. The settings on record: mean of both orientations.

The target of the next test is T26, P9.
T26 chain: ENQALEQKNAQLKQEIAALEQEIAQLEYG
As to the kind of experiment: two-hybrid library CC1. The settings on record: mean of both orientations.

The target of the next test is T27, 4H3497-bN.
T27 chain: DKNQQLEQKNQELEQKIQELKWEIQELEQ
As to the kind of experiment: two-hybrid library CCNG1.

The target in a further test is T28, 4H3613-bN.
T28 chain: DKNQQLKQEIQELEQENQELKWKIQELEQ
As to the kind of experiment: two-hybrid library CCNG1.

The next test concerns the target T29, 4H3628-bN.
T29 chain: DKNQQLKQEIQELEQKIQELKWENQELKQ
Nature of the test: two-hybrid library CCNG1.

A further test has as its target T30, 4H3926-bN.
T30 chain: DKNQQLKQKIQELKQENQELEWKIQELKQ
As to the kind of experiment: two-hybrid library CCNG1.

A further test addresses T31, 4H591-bN.
T31 chain: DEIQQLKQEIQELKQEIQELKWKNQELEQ
As to the kind of experiment: two-hybrid library CCNG1.

Another test concerns the target T32, 4H626-bN.
T32 chain: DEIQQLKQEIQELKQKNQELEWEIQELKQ
Nature of the test: two-hybrid library CCNG1.

The target of a further test is T33, 4H906-bN.
T33 chain: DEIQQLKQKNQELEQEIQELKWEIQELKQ
As to the kind of experiment: two-hybrid library CCNG1.

For DKIAALKAENAALEAKIAALEAKNAALKG [4H2728-AA], the interaction score with 4H2728-AA was -0.514; in the test with 4H2774-AA, -1.68; with 4H2903-AA it was -1.25; in the test with 4H2961-AA, -1.41; with 4H3049-AA it was 0.953; in the test with 4H3129-AA it was 0.939. In addition, the interaction score was -0.899 with 4H341-AA; -1.03 in the test with 4H3414-AA; -1.57 in the test with 4H3595-AA; -0.438 with 4H3629-AA; -1.28 with 4H3782-AA; -1.69 with 4H380-AA. For the same molecule, the interaction score with 4H3939-AA is -1.01; with 4H3969-AA, -1.14; with 4H446-AA, -0.989; with 4H464-AA it was 0.651; with 4H483-AA, 2.24; with 4H63-AA, -0.35.

For KNSQLKEEIQQLEEENQQLEEKIRQLKYGC [P6SC1], the interaction score with P6SC1 is -2.56; with P6SC2 it was -2.43; with P6mS, -2.87; with P7 it was -0.456; with P7mS, -2.22; in the test with P8 it was -2.12. The interaction score in the test with P8mS is -2.55; with P9, -1.54.

On to DKNQQLEQKNQELEQKIQELKWEIQELEQ [4H3497-bN], for which the interaction score with 4H3497-bN is -1.39; in the test with 4H3613-bN, -1.36; with 4H3628-bN, -0.414; with 4H3926-bN, -1.9; in the test with 4H591-bN, -0.818; in the test with 4H626-bN, -2.23. The interaction score with 4H906-bN is -0.915.

(Values after paper PMC10397247.)
